Test results taken from PMC6026870, “Selective induction of cancer cell death by VDAC1‐based peptides and their potential use in cancer therapy” (Molecular Oncology, 2018).

Target: voltage‐dependent anion channel 1 (VDAC1) (human (endogenous in HeLa), UniProt P21796 1-283)
Assay: cell-based or functional assay

B1: Human hexokinase I (HK‐I), recombinant (enzyme, UniProt P19367 1-917, looked up)
chain: MIAAQLLAYYFTELKDDQVKKIDKYLYAMRLSDETLIDIMTRFRKEMKNGLSRDFNPTATVKMLPTFVRSIPDGSEKGDFIALDLGGSSFRILRVQVNHEKNQNVHMESEVYDTPENIVHGSGSQLFDHVAECLGDFMEKRKIKDKKLPVGFTFSFPCQQSKIDEAILITWTKRFKASGVEGADVVKLLNKAIKKRGDYDANIVAVVNDTVGTMMTCGYDDQHCEVGLIIGTGTNACYMEELRHIDLVEGDEGRMCINTEWGAFGDDGSLEDIRTEFDREIDRGSLNPGKQLFEKMVSGMYLGELVRLILVKMAKEGLLFEGRITPELLTRGKFNTSDVSAIEKNKEGLHNAKEILTRLGVEPSDDDCVSVQHVCTIVSFRSANLVAATLGAILNRLRDNKGTPRLRTTVGVDGSLYKTHPQYSRRFHKTLRRLVPDSDVRFLLSESGSGKGAAMVTAVAYRLAEQHRQIEETLAHFHLTKDMLLEVKKRMRAEMELGLRKQTHNNAVVKMLPSFVRRTPDGTENGDFLALDLGGTNFRVLLVKIRSGKKRTVEMHNKIYAIPIEIMQGTGEELFDHIVSCISDFLDYMGIKGPRMPLGFTFSFPCQQTSLDAGILITWTKGFKATDCVGHDVVTLLRDAIKRREEFDLDVVAVVNDTVGTMMTCAYEEPTCEVGLIVGTGSNACYMEEMKNVEMVEGDQGQMCINMEWGAFGDNGCLDDIRTHYDRLVDEYSLNAGKQRYEKMISGMYLGEIVRNILIDFTKKGFLFRGQISETLKTRGIFETKFLSQIESDRLALLQVRAILQQLGLNSTCDDSILVKTVCGVVSRRAAQLCGAGMAAVVDKIRENRGLDRLNVTVGVDGTLYKLHPHFSRIMHQTVKELSPKCNVSFLLSEDGSGKGAALITAVGVRLRTEASS
modifications: fluorescently labeled using a NanoTemper BLUE protein‐labeling kit (in the MST)
- HK‐I in the cytosolic fraction (0.025% digitonin fractionation, immunoblot) of A549 cells treated with Tf‐D‐LP4 (3, 5, 10 μM, 3 h): ~2 fold
- HK‐I in the cytosolic fraction (0.025% digitonin fractionation, immunoblot) of HeLa cells treated with R‐Tf‐D‐LP4 (3, 5, 10 μM, 3 h): ~2 fold
